The values below are quoted from earlier work in article PMC3433420.

Among the targets are PIK3R2-NC (Homo sapiens) (UniProt O00459); ABL2 (Homo sapiens) (UniProt P42684); TNS3 (Homo sapiens) (UniProt Q68CZ2); PIK3R1-NC (Homo sapiens) (UniProt P27986); SH2B3 (Homo sapiens) (UniProt Q9UQQ2); SYK-NC (Homo sapiens) (UniProt P43405); VAV2 (Homo sapiens) (UniProt P52735); BLK (Homo sapiens) (UniProt P51451); PIK3R2-N (Homo sapiens) (UniProt O00459); FGR (Homo sapiens) (UniProt P09769); PIK3R3-N (Homo sapiens) (UniProt Q92569); PIK3R1-C (Homo sapiens) (UniProt P27986); SH2D1B (Homo sapiens) (UniProt O14796); VAV1 (Homo sapiens) (UniProt P15498); PLCG2-N (Homo sapiens) (UniProt P16885); TEC (Homo sapiens) (UniProt P42680); ABL1 (Homo sapiens) (UniProt P00519); PLCG2-NC (Homo sapiens) (UniProt P16885); RASA1-NC (Homo sapiens) (UniProt P20936); TXK (Homo sapiens) (UniProt P42681); TNS1 (Homo sapiens) (UniProt Q9HBL0); SH2D3A (Homo sapiens) (UniProt Q9BRG2); SH2D3C (Homo sapiens) (UniProt Q8N5H7).

Conditions in all cases: cited from earlier work
Data set [1] has as its target PIK3R3-C (Homo sapiens) (UniProt Q92569).
Data set [2] addresses GRB7 (Homo sapiens) (UniProt Q14451).
Data set [3] has the same target. The source holds these as a separate data set.
Data set [4] has as its target PIK3R3-C (Homo sapiens) (UniProt Q92569). The source holds these as a separate data set.
Data set [5] has as its target RASA1-N (Homo sapiens) (UniProt P20936).
Data set [6] has the same target. This is another data set of the same source.
The target is the same in data set [7]. This is another data set of the same source.
Data set [8] has as its target PIK3R3-C (Homo sapiens) (UniProt Q92569). The source holds these as a separate data set.

Where two headings read alike, the source gives them in different places.

Sequence of RASA1-N (Homo sapiens) (P20936 176-446): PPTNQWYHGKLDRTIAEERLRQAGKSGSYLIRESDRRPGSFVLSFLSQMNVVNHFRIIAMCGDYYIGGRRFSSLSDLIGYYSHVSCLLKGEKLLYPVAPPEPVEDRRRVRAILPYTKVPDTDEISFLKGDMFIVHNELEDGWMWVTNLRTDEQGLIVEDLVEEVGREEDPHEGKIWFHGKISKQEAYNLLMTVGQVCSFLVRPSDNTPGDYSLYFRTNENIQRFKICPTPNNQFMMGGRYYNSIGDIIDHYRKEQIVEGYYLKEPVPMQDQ
Sequence of GRB7 (Homo sapiens) (Q14451 426-532): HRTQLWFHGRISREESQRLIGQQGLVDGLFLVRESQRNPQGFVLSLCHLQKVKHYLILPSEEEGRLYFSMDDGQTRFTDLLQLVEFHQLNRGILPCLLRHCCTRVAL
Sequence of ABL1 (Homo sapiens) (P00519 122-222): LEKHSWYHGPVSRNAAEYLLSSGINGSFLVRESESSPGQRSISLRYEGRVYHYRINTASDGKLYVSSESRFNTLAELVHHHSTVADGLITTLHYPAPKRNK
Sequence of SH2D3A (Homo sapiens) (Q9BRG2 10-119): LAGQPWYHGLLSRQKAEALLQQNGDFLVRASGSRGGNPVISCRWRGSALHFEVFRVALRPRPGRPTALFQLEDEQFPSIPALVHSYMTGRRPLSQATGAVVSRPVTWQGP
Sequence of VAV1 (Homo sapiens) (P15498 666-770): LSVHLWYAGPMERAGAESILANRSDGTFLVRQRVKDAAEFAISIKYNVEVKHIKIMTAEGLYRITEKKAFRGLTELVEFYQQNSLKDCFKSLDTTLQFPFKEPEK
Sequence of TEC (Homo sapiens) (P42680 242-350): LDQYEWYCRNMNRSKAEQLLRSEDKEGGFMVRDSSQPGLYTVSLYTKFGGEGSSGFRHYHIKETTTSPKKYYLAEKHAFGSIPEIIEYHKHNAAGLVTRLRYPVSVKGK
Sequence of PIK3R2-NC (Homo sapiens) (O00459 325-721): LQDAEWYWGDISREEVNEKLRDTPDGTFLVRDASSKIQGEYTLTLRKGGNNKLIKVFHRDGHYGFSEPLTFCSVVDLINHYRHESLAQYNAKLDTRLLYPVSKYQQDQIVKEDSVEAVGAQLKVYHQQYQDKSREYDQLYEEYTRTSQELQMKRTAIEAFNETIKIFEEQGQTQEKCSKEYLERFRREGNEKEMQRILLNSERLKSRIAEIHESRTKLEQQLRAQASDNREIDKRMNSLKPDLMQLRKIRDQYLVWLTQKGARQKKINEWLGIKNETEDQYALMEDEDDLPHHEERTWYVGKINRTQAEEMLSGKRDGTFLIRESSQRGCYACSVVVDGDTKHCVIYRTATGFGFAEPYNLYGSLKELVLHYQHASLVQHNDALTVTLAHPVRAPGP
Sequence of PIK3R2-N (Homo sapiens) (O00459 325-721): as above
Sequence of VAV2 (Homo sapiens) (P52735 668-772): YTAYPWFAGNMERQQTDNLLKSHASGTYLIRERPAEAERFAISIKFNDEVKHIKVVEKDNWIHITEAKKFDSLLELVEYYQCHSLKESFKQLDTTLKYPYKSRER
Sequence of TNS1 (Homo sapiens) (Q9HBL0 1562-1681): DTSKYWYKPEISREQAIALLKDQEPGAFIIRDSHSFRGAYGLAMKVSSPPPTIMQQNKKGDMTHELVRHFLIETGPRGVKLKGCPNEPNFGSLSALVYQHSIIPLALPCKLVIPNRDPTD
Sequence of TNS3 (Homo sapiens) (Q68CZ2 1167-1287): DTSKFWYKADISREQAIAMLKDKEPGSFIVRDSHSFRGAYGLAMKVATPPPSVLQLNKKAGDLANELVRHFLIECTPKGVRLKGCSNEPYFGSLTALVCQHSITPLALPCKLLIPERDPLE
Sequence of SH2B3 (Homo sapiens) (Q9UQQ2 359-467): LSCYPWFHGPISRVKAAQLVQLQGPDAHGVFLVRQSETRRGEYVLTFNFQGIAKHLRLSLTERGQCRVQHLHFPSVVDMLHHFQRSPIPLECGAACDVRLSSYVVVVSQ
Sequence of PIK3R1-C (Homo sapiens) (P27986 328-723): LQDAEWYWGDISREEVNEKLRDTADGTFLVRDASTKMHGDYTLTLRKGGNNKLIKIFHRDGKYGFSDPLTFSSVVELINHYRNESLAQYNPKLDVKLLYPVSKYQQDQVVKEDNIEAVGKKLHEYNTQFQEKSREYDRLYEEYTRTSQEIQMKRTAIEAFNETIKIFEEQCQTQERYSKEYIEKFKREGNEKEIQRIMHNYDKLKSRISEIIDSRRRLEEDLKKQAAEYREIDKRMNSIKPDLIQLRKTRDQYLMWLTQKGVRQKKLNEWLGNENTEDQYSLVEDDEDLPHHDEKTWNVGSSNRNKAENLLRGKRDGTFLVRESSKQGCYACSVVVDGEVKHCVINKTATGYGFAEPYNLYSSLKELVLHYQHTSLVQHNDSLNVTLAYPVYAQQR
Sequence of PIK3R1-NC (Homo sapiens) (P27986 328-723): as above
Sequence of ABL2 (Homo sapiens) (P42684 168-268): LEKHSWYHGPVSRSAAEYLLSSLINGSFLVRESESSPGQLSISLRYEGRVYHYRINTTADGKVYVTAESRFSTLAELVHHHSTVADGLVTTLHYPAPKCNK
Sequence of RASA1-NC (Homo sapiens) (P20936 176-446): as the sequence (P20936 176-446) above
Sequence of TXK (Homo sapiens) (P42681 145-251): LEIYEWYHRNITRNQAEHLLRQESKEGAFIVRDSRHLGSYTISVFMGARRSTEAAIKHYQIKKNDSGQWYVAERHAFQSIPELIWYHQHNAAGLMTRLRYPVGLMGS
Sequence of SH2D1B (Homo sapiens) (O14796 1-106): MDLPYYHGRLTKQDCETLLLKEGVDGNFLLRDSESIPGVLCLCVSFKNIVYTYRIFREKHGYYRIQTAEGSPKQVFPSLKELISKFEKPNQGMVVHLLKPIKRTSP
Sequence of PLCG2-NC (Homo sapiens) (P16885 527-740): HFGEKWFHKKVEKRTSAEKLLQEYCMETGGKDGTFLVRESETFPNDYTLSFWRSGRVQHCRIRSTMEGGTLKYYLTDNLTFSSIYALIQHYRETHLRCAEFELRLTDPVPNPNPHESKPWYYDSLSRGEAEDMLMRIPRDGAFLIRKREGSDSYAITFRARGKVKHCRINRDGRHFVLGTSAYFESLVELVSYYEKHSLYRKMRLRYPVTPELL
Sequence of PLCG2-N (Homo sapiens) (P16885 527-740): as above
Sequence of SH2D3C (Homo sapiens) (Q8N5H7 215-324): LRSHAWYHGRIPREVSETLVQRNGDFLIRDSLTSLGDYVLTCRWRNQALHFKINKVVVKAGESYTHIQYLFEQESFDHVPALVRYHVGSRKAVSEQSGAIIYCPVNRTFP
Sequence of BLK (Homo sapiens) (P51451 119-225): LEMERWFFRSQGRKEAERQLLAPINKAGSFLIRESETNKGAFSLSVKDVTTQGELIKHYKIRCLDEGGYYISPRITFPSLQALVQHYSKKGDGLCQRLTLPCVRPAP

For …pYEEMRAFQ, the apparent Kd (screen) in the data set with PIK3R3-C (Homo sapiens) [1] is 12 nM; with PIK3R2-NC (Homo sapiens) it was 86 nM; in the data set with ABL2 (Homo sapiens) it was 44 nM; with TNS3 (Homo sapiens) it was 639 nM; with PIK3R1-NC (Homo sapiens), 49 nM; with GRB7 (Homo sapiens) [2] it was 1520 nM. Moreover, the apparent Kd (screen) with SH2B3 (Homo sapiens) is 1520 nM.
For the substance …pYLIPQQGFd, the apparent Kd (screen) is 611 nM with SYK-NC (Homo sapiens); 2000 nM with GRB7 (Homo sapiens) [3]; 193 nM with PIK3R3-C (Homo sapiens) [4]; 2000 nM with VAV2 (Homo sapiens); 488 nM with RASA1-N (Homo sapiens) [5]; 769 nM with RASA1-N (Homo sapiens) [6]. Moreover, the apparent Kd (screen) with BLK (Homo sapiens) was 658 nM.
Take …pYLVPQQGF: the apparent Kd (screen) in the data set with PIK3R2-N (Homo sapiens) is 1950 nM; with FGR (Homo sapiens) it was 2000 nM; in the data set with PIK3R3-N (Homo sapiens), 1930 nM; in the data set with PIK3R1-C (Homo sapiens), 2000 nM.
For the substance …pYWDQDPPE, the apparent Kd (screen) in the data set with SH2D1B (Homo sapiens) is 2000 nM; with RASA1-N (Homo sapiens) [7] it was 504 nM; with VAV1 (Homo sapiens), 2000 nM; with PLCG2-N (Homo sapiens) it was 601 nM; with PIK3R3-C (Homo sapiens) [8], 2000 nM; in the data set with TEC (Homo sapiens), 1600 nM. For the same substance, the apparent Kd (screen) was 1840 nM with ABL1 (Homo sapiens); 2000 nM in the data set with PLCG2-NC (Homo sapiens); 224 nM with RASA1-NC (Homo sapiens); 2000 nM in the data set with TXK (Homo sapiens); 2000 nM with TNS1 (Homo sapiens); 1600 nM with SH2D3A (Homo sapiens). The apparent Kd (screen) with SH2D3C (Homo sapiens) was 705 nM.
